Data taken from publication PMC10349951.
Values joined by “and” are separate entries in the source; they are usually repeats but may differ in a detail not shown here. Equal values may be shown once.

Molecular target: Recombinant Halo-tagged Synaptophysin labeled with Alexa488 (mouse) (UniProt Q62277)
Assay: single-molecule TIRF step photobleaching

Recombinant Halo-tagged Synaptophysin labeled with Alexa488 (from UniProt Q62277 1-314) (natural protein)
stoichiometry N: 3 copies and 5 copies
